9 substances from US20240109955A1 can be followed below.

Common to all, as to assay: cell-based or functional assay
The target in test [1] is SARS-CoV-2 spike protein, Mu variant (B.1.621) (SARS-CoV-2).
For test [2], the target named is SARS-CoV-2 spike (S) protein, Omicron variant BA.2 (SARS-CoV-2) (UniProt P0DTC2).
Test [3] addresses SARS-CoV-2 spike protein, Gamma variant (P.1) (SARS-CoV-2).
Test [4] concerns the target SARS-CoV-2 spike protein, Alpha variant (B.1.1.7) (SARS-CoV-2).
The target of test [5] is SARS-CoV-2 spike (S) protein, Omicron variant BA.2.12.1 (SARS-CoV-2) (UniProt P0DTC2).
For test [6], the target named is SARS-CoV-2 spike protein, Delta variant (AY.1) (SARS-CoV-2).
In test [7] the target is SARS-CoV-2 spike protein, Iota variant (B.1.526) (SARS-CoV-2).
The target in test [8] is SARS-CoV-2 spike protein, Kappa variant (B.1.617.1) (SARS-CoV-2).
The target of test [9] is SARS-CoV-2 spike protein, Lambda variant (C.37) (SARS-CoV-2).
For test [10], the target named is SARS-CoV-2 spike (S) protein, Omicron variant BA.1 (SARS-CoV-2) (UniProt P0DTC2).
In test [11] the target is SARS-CoV-2 spike protein, C.1.2 variant (SARS-CoV-2).
Test [12] addresses SARS-CoV-2 spike protein, Delta variant (B.1.617.2) (SARS-CoV-2).
The target of test [13] is SARS-CoV-2 spike protein, Beta variant 1 (B.1.351 v1) (SARS-CoV-2).
In test [14] the target is SARS-CoV-2 spike (S) protein, Omicron sublineage BA.4.7 (R346S, F486V) (SARS-CoV-2) (UniProt P0DTC2).
The target in test [15] is SARS-CoV-2 spike (S) protein, Omicron sublineage BA.4.6 (R346T, F486V) (SARS-CoV-2) (UniProt P0DTC2).
Test [16] concerns the target SARS-CoV-2 spike (S) protein, Omicron sublineage BQ 1.1 (R346T, K444T, F486V) (SARS-CoV-2) (UniProt P0DTC2).
Test [17] concerns the target SARS-CoV-2 spike (S) protein, Omicron sublineage BF.7 (R346T, F486V) (SARS-CoV-2) (UniProt P0DTC2).
Test [18] has as its target SARS-CoV-2 Omicron BA.4.6 spike protein (R346T, F486V) (SARS-CoV-2) (UniProt P0DTC2).
Test [19] addresses SARS-CoV-2 spike (S) protein, Omicron sublineage BA.1.1 (R346K) (SARS-CoV-2) (UniProt P0DTC2).
Test [20] deals with SARS-CoV-2 spike protein, Omicron variant (B.1.1.529) (SARS-CoV-2) (UniProt P0DTC2).
Test [21] addresses SARS-CoV-2 spike (S) protein, C.1.2 variant (SARS-CoV-2) (UniProt P0DTC2).
For test [22], the target named is SARS-CoV-2 spike protein, Beta variant 1 (B.1.351.v1) (SARS-CoV-2).
Test [23] deals with SARS-CoV-2 spike (S) protein, Mu variant (B.1.621) (SARS-CoV-2) (UniProt P0DTC2).
Test [24] addresses SARS-CoV-2 spike (S) protein, Omicron variant BA.4/5 (SARS-CoV-2) (UniProt P0DTC2).

MX184 (B1-182 × A19-61) (bispecific antibody), sequence (chain): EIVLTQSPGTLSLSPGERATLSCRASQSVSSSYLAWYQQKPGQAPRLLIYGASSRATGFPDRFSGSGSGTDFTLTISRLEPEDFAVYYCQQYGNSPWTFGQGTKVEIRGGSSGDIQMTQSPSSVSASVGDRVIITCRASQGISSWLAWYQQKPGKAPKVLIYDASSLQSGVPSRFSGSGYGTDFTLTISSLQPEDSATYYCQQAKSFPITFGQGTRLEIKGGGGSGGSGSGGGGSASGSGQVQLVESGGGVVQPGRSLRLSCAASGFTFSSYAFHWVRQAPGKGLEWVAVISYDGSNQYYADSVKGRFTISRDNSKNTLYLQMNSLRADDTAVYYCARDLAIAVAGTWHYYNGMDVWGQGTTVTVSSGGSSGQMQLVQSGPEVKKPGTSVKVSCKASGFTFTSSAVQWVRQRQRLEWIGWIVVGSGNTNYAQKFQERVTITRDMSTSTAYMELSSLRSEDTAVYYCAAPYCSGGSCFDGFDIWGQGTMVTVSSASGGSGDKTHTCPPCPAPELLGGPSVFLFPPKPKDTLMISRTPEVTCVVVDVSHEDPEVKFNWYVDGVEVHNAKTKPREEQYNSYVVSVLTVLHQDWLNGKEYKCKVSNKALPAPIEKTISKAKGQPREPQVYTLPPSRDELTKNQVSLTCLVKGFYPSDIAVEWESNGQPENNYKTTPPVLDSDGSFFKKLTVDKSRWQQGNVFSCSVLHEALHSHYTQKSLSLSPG
MX413 (A19-61 x A23-58H/B1-182L) (bispecific antibody), sequence (chain): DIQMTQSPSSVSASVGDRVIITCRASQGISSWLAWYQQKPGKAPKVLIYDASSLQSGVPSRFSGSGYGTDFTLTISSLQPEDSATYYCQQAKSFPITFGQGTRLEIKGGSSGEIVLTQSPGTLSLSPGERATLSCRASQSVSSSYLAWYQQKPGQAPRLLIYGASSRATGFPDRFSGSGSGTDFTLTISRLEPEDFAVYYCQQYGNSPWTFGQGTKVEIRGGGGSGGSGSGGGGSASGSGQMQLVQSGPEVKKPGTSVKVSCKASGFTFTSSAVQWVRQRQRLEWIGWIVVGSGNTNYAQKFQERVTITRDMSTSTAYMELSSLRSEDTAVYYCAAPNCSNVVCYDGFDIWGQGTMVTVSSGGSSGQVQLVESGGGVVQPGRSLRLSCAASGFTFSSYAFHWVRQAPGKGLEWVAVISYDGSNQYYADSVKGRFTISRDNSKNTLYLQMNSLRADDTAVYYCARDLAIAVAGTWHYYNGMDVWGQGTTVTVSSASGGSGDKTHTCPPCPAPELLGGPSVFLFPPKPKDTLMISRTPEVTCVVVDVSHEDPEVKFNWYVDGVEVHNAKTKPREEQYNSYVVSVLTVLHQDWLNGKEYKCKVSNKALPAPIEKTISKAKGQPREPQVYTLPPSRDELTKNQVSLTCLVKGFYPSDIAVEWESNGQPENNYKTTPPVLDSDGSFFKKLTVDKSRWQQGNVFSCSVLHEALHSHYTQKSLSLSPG
A19-46 mAb (antibody), sequence (VH): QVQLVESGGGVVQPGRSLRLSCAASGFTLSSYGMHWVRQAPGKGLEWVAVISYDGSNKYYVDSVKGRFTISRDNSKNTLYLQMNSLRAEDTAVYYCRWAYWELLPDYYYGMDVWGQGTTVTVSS
A19-46 mAb (antibody), sequence (VL): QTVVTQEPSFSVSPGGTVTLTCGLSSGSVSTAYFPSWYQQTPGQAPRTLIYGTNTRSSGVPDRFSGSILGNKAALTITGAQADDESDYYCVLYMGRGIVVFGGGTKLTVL
MX492 (A19-46 x A23-58H/B1-182L) (bispecific antibody), sequence (chain): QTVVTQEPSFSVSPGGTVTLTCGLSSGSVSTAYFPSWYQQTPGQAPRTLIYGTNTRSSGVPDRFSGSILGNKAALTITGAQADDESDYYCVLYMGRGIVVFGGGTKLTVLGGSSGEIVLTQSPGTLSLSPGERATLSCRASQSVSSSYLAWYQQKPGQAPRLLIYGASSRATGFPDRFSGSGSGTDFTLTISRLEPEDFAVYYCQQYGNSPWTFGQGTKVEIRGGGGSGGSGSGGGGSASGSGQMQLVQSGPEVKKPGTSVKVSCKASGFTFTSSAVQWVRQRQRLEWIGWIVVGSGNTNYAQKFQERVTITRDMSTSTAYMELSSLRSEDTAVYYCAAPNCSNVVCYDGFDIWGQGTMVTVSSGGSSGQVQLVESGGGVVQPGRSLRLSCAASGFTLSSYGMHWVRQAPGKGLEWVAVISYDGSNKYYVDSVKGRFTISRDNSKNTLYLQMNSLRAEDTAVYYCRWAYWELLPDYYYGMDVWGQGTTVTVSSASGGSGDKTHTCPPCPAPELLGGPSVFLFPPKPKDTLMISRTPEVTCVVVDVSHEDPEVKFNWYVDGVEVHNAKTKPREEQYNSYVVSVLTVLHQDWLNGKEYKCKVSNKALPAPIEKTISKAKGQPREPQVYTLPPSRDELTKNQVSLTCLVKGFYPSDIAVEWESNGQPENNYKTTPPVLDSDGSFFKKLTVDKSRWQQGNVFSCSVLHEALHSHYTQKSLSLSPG

For the substance B1-182 mAb (antibody), the IC50, pseudovirus neutralization is 0.0695 nM in [1]; 2.34 nM in test [2]; 0.0182 nM in [3]; 0.0262 nM in test [4]; 0.739 nM in [5]; 0.008 nM in test [6]. In addition, the IC50, pseudovirus neutralization is 0.0639 nM in test [7]; 0.0261 nM in test [8]; 0.0049 nM in test [9]; 1.03 nM in test [10]; 0.0549 nM in test [11]; 0.0099 nM in test [12]. Also, the IC50, pseudovirus neutralization in test [13] was 0.0357 nM. Further, the IC80, pseudovirus neutralization in test [1] was 0.219 nM; in [2], 8.19 nM; in test [3], 0.0429 nM; in test [4], 0.0844 nM; in [5] it was 5.92 nM; in test [6] it was 0.0192 nM. For the same substance, the IC80, pseudovirus neutralization was found to be 0.183 nM in test [7]; 0.086 nM in [8]; 0.015 nM in test [9]; 4.44 nM in test [10]; 0.11 nM in test [11]; 0.0254 nM in test [12]. Also, the IC80, pseudovirus neutralization in [13] is 0.139 nM.
For A19-61 mAb (antibody), the IC50, pseudovirus neutralization worked out at 0.264 nM in test [1]; 0.725 nM in test [2]; 0.135 nM in [3]; 0.175 nM in test [4]; 0.11 nM in test [5]; 0.0557 nM in [6]. Moreover, the IC50, pseudovirus neutralization is 0.0418 nM in [7]; 0.0815 nM in test [8]; 0.11 nM in test [9]; over 66.7 nM in [10]; 8.43 nM in [11]; 0.209 nM in test [12]. This substance also had an IC50, pseudovirus neutralization in [13] of 0.0686 nM. Further, the IC80, pseudovirus neutralization in [1] turned out to be 0.43 nM; in test [2] it was 2.24 nM; in test [3], 0.288 nM; in [4], 0.325 nM; in [5] it was 0.298 nM; in [6], 0.121 nM. Further, the IC80, pseudovirus neutralization in test [7] was 0.0836 nM; in test [8], 0.173 nM; in test [9], 0.186 nM; in [10], over 66.7 nM; in [11], over 66.7 nM; in [12] it was 0.292 nM. Moreover, the IC80, pseudovirus neutralization in test [13] was found to be 0.113 nM.
Regarding “MX413 (A19-61 x A23-58H/B1-182L) (bispecific antibody)”, the IC50, pseudovirus neutralization in test [14] was 77.9 nM; in test [15], 56 nM; in test [16], over 10000 nM; in test [17], 28.1 nM; in test [18] it was 10 nM; in test [19], 2.24 nM. The IC80, pseudovirus neutralization in test [14] is 126 nM; in test [15] it was 155 nM; in test [16], over 10000 nM; in [17] it was 177 nM; in [18], 25 nM; in test [19], 10.5 nM.
Take A19-46 mAb (antibody): the IC50, pseudovirus neutralization in [1] is 1.34 nM; in [2], 0.0645 nM; in test [3], 0.26 nM; in test [4], 0.19 nM; in test [5], over 66.7 nM; in [6] it was over 66.7 nM. The IC50, pseudovirus neutralization in [7] is 0.803 nM; in test [8], over 66.7 nM; in test [9], over 66.7 nM; in test [10], 0.958 nM; in test [11], 11.6 nM; in test [12], over 66.7 nM. Besides, the IC50, pseudovirus neutralization in [13] came to 0.807 nM. The IC80, pseudovirus neutralization in test [1] was 3.81 nM; in [2], 0.177 nM; in test [3], 0.7 nM; in test [4], 0.486 nM; in test [5] it was over 66.7 nM; in [6] it was over 66.7 nM. Besides, the IC80, pseudovirus neutralization in test [7] is 1.88 nM; in [8], over 66.7 nM; in [9], over 66.7 nM; in test [10], 2.28 nM; in [11], 21 nM; in [12], over 66.7 nM. Moreover, the IC80, pseudovirus neutralization in test [13] amounted to 2.07 nM.
Turning to “MX184 (B1-182 × A19-61) (bispecific antibody)”, the IC50, pseudovirus neutralization is 0.0325 nM in test [3]; 0.0772 nM in test [4]; 0.0174 nM in test [6]; 47.6 nM in test [10]; 0.0129 nM in [12]; 0.0441 nM in [13]. The IC80, pseudovirus neutralization in test [3] was 0.137 nM; in test [4] it was 0.186 nM; in [6], 0.03 nM; in test [10], over 66.7 nM; in [12], 0.0458 nM; in test [13], 0.12 nM.
Consider S2E12 (antibody), for which, in test [20], the IC50, pseudovirus neutralization was 8.8 nM and the IC80, pseudovirus neutralization came to 38.5 nM.
In the case of A23_58.1 (antibody), the pseudovirus neutralization IC50 (nM (inferred)) in test [21] is 0.0287; in [2] it was 1.72; in test [5], 0.647; in test [23], 0.124; in test [10], 0.853; in test [24], over 66.7. Further, the pseudovirus neutralization IC80 (nM (inferred)) in test [21] is 0.0656; in [2], 6.12; in test [5], 4.96; in test [23], 0.26; in test [10], 4.24; in test [24] it was over 66.7. Further, the IC50, pseudovirus neutralization in test [3] worked out at 0.0097 nM; in test [22], 0.123 nM; in [4], 0.0329 nM; in test [12], 0.0133 nM. Moreover, the IC80, pseudovirus neutralization was 0.0437 nM in [3], 0.339 nM in test [22], 0.104 nM in test [4] and 0.0358 nM in [12].
In test [20], A23-58.1 (antibody) displayed an IC50, pseudovirus neutralization of 98.1 nM and an IC80, pseudovirus neutralization of 782 nM.
Regarding “MX492 (A19-46 x A23-58H/B1-182L) (bispecific antibody)”, the IC50, pseudovirus neutralization in [14] is 13.3 nM; in [15], 21.4 nM; in [16], over 10000 nM; in [17], over 10000 nM; in test [18], over 10000 nM; in test [19], 8.77 nM. Moreover, the IC80, pseudovirus neutralization in [14] was 154 nM; in [15], 24.5 nM; in test [16] it was over 10000 nM; in [17], over 10000 nM; in test [18], over 10000 nM; in test [19] it was 68 nM.
